This passage reports 3T3 cell mitogenicity assay (tritiated thymidine incorporation) in the presence and absence of PDGF results from patent publication US5504197.

This experiment has as its target PDGF-A (PDGF dimer composed of two A chains).

“Platelet Derived Growth Factor-Associated Protein (PAP), rat, recombinant, expressed in bacteria” had a 3T3 cell mitogenicity assay (tritiated thymidine incorporation) in the presence and absence of PDGF of more than 2 fold.
